Patent publication US20060257938A1, “Method of screening for drugs that block ligand binding to a lipid binding protein” (priority 2005, published 2006)

B1: 72A 73W 74A (protein, listed as Rattus norvegicus)
chain: AFDGTWKVDRNENYEKFMEKMGINVVKRKLGAHDNLKLTITQEGNKFTVKESSNFRNIDVVFELGVDFAYSAWAGTELTGTWTMEGNKLVGKFKRVDNGKELIAVREISGNELIQTYTYEGVEAKRIFKKE
modifications: PEPTIDE (1)...(131) wild-type rat intestinal fatty acid binding protein
B2: 74E 72A 73F (protein, listed as Rattus norvegicus)
chain: AFDGTWKVDRNENYEKFMEKMGINVVKRKLGAHDNLKLTITQEGNKFTVKESSNFRNIDVVFELGVDFAYSAFEGTELTGTWTMEGNKLVGKFKRVDNGKELIAVREISGNELIQTYTYEGVEAKRIFKKE
modifications: PEPTIDE (1)...(131) wild-type rat intestinal fatty acid binding protein
B3: 14Q 18L 31A 73W 117V 72A (protein, listed as Rattus norvegicus)
chain: AFDGTWKVDRNENQEKFLEKMGINVVKRKLAAHDNLKLTITQEGNKFTVKESSNFRNIDVVFELGVDFAYSAWDGTELTGTWTMEGNKLVGKFKRVDNGKELIAVREISGNELIQTVTYEGVEAKRIFKKE
modifications: PEPTIDE (1)...(131) wild-type rat intestinal fatty acid binding protein
B4: 74T 72A 73F (protein, listed as Rattus norvegicus)
chain: AFDGTWKVDRNENYEKFMEKMGINVVKRKLGAHDNLKLTITQEGNKFTVKESSNFRNIDVVFELGVDFAYSAFTGTELTGTWTMEGNKLVGKFKRVDNGKELIAVREISGNELIQTYTYEGVEAKRIFKKE
modifications: PEPTIDE (1)...(131) wild-type rat intestinal fatty acid binding protein
B5: 18V 31A 55W 73W 72A (protein, listed as Rattus norvegicus)
chain: AFDGTWKVDRNENYEKFVEKMGINVVKRKLAAHDNLKLTITQEGNKFTVKESSNWRNIDVVFELGVDFAYSAWDGTELTGTWTMEGNKLVGKFKRVDNGKELIAVREISGNELIQTYTYEGVEAKRIFKKE
modifications: PEPTIDE (1)...(131) wild-type rat intestinal fatty acid binding protein
B6: 18I 31L 55L 72A (protein, listed as Rattus norvegicus)
chain: AFDGTWKVDRNENYEKFIEKMGINVVKRKLLAHDNLKLTITQEGNKFTVKESSNLRNIDVVFELGVDFAYSAADGTELTGTWTMEGNKLVGKFKRVDNGKELIAVREISGNELIQTYTYEGVEAKRIFKKE
modifications: PEPTIDE (1)...(131) wild-type rat intestinal fatty acid binding protein
B7: 55V 73F 72A (protein, listed as Rattus norvegicus)
chain: AFDGTWKVDRNENYEKFMEKMGINVVKRKLGAHDNLKLTITQEGNKFTVKESSNVRNIDVVFELGVDFAYSAFDGTELTGTWTMEGNKLVGKFKRVDNGKELIAVREISGNELIQTYTYEGVEAKRIFKKE
modifications: PEPTIDE (1)...(131) wild-type rat intestinal fatty acid binding protein
B8: 18I 31V 73G 72A (protein, listed as Rattus norvegicus)
chain: AFDGTWKVDRNENYEKFIEKMGINVVKRKLVAHDNLKLTITQEGNKFTVKESSNFRNIDVVFELGVDFAYSAGDGTELTGTWTMEGNKLVGKFKRVDNGKELIAVREISGNELIQTYTYEGVEAKRIFKKE
modifications: PEPTIDE (1)...(131) wild-type rat intestinal fatty acid binding protein
B9: 18V 31A 73F 72A (protein, listed as Rattus norvegicus)
chain: AFDGTWKVDRNENYEKFVEKMGINVVKRKLAAHDNLKLTITQEGNKFTVKESSNFRNIDVVFELGVDFAYSAFDGTELTGTWTMEGNKLVGKFKRVDNGKELIAVREISGNELIQTYTYEGVEAKRIFKKE
modifications: PEPTIDE (1)...(131) wild-type rat intestinal fatty acid binding protein
B10: 72V 73W 74S (protein, listed as Rattus norvegicus)
chain: AFDGTWKVDRNENYEKFMEKMGINVVKRKLGAHDNLKLTITQEGNKFTVKESSNFRNIDVVFELGVDFAYSVWSGTELTGTWTMEGNKLVGKFKRVDNGKELIAVREISGNELIQTYTYEGVEAKRIFKKE
modifications: PEPTIDE (1)...(131) wild-type rat intestinal fatty acid binding protein
B11: 73F 72A (protein, listed as Rattus norvegicus)
chain: AFDGTWKVDRNENYEKFMEKMGINVVKRKLGAHDNLKLTITQEGNKFTVKESSNFRNIDVVFELGVDFAYSAFDGTELTGTWTMEGNKLVGKFKRVDNGKELIAVREISGNELIQTYTYEGVEAKRIFKKE
modifications: PEPTIDE (1)...(131) wild-type rat intestinal fatty acid binding protein
B12: 72S 73W 74G (protein, listed as Rattus norvegicus)
chain: AFDGTWKVDRNENYEKFMEKMGINVVKRKLGAHDNLKLTITQEGNKFTVKESSNFRNIDVVFELGVDFAYSSWGGTELTGTWTMEGNKLVGKFKRVDNGKELIAVREISGNELIQTYTYEGVEAKRIFKKE
modifications: PEPTIDE (1)...(131) wild-type rat intestinal fatty acid binding protein
B13: 73T 72A 74F (protein, listed as Rattus norvegicus)
chain: AFDGTWKVDRNENYEKFMEKMGINVVKRKLGAHDNLKLTITQEGNKFTVKESSNFRNIDVVFELGVDFAYSATFGTELTGTWTMEGNKLVGKFKRVDNGKELIAVREISGNELIQTYTYEGVEAKRIFKKE
modifications: PEPTIDE (1)...(131) wild-type rat intestinal fatty acid binding protein
B14: 18I 31I 55M 73I 72A (protein, listed as Rattus norvegicus)
chain: AFDGTWKVDRNENYEKFIEKMGINVVKRKLIAHDNLKLTITQEGNKFTVKESSNMRNIDVVFELGVDFAYSAIDGTELTGTWTMEGNKLVGKFKRVDNGKELIAVREISGNELIQTYTYEGVEAKRIFKKE
modifications: PEPTIDE (1)...(131) wild-type rat intestinal fatty acid binding protein
B15: 72I 73W 74N (protein, listed as Rattus norvegicus)
chain: AFDGTWKVDRNENYEKFMEKMGINVVKRKLGAHDNLKLTITQEGNKFTVKESSNFRNIDVVFELGVDFAYSIWNGTELTGTWTMEGNKLVGKFKRVDNGKELIAVREISGNELIQTYTYEGVEAKRIFKKE
modifications: PEPTIDE (1)...(131) wild-type rat intestinal fatty acid binding protein

What was measured:
Type in all cases: binding
[1] = Probe fluorescence ratio response to arachidonic acid relative to ADIFAB2; conditions: arachidonic acid; response relative to ADIFAB2
In short: (§1)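 Fluorescently labeled rat intestinal FABP variants were read at two emission wavelengths, near the unbound maximum (about 420 to 480 nm) and the FFA-bound maximum (about 495 to 580 nm). R = Fλ1/Fλ2 after subtracting probe-free intensity; ΔR = R+agent − R0, normalized to ADIFAB2 (rI-FABP-L72A).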

[2] = Probe fluorescence ratio response to linolenic acid relative to ADIFAB2; conditions: response relative to ADIFAB2
In short: as §1

[3] = Probe fluorescence ratio response to linoleic acid relative to ADIFAB2; conditions: response relative to ADIFAB2
In short: as §1

[4] = Probe fluorescence ratio response to oleic acid relative to ADIFAB2; conditions: response relative to ADIFAB2
In short: as §1

[5] = Probe fluorescence ratio response to palmitic acid relative to ADIFAB2; conditions: response relative to ADIFAB2
In short: as §1

[6] = Probe fluorescence ratio response to palmitoleic acid relative to ADIFAB2; conditions: response relative to ADIFAB2
In short: as §1

[7] = Probe fluorescence ratio response to stearic acid relative to ADIFAB2; conditions: response relative to ADIFAB2
In short: as §1

| Molecule | DR/DR AA [1] | DR/DR LNA [2] | DR/DR LA [3] | DR/DR OA [4] | DR/DR PA [5] | DR/DR POA [6] | DR/DR SA [7] |
| --- | --- | --- | --- | --- | --- | --- | --- |
| B1 | 0.892 | 2.093 | 1.466 | 0.933 | 1.942 | 3.016 | 0.330 |
| B2 | 0.703 | 1.558 | 1.093 | 0.575 | 1.026 | 2.395 | 0.251 |
| B3 | 1.558 | 1.958 | 1.942 | 1.478 | 1.084 | 2.008 | 0.384 |
| B4 | 0.852 | 1.635 | 1.185 | 0.634 | 1.150 | 2.309 | 0.273 |
| B5 | 1.130 | 1.887 | 1.555 | 0.913 | 1.505 | 2.042 | 0.392 |
| B6 | 1.285 | 1.736 | 1.442 | 0.759 | 1.523 | 2.011 | 0.310 |
| B7 | 0.864 | 1.566 | 1.223 | 0.661 | 1.082 | 2.264 | 0.285 |
| B8 | 1.348 | 1.946 | 1.715 | 0.968 | 1.630 | 2.122 | 0.543 |
| B9 | 1.142 | 2.036 | 1.527 | 0.828 | 1.510 | 2.677 | 0.375 |
| B10 | 1.424 | 2.044 | 1.819 | 1.477 | 1.789 | 2.662 | 0.574 |
| B11 | 1.051 | 1.775 | 1.171 | 0.630 | 1.118 | 2.381 | 0.399 |
| B12 | 1.012 | 1.706 | 1.375 | 0.970 | 1.653 | 2.422 | 0.411 |
| B13 | 0.939 | 1.661 | 1.389 | 1.161 | 1.632 | 2.450 | 0.519 |
| B14 | 1.354 | 1.803 | 1.516 | 0.822 | 1.546 | 1.903 | 0.382 |
| B15 | 0.791 | 1.794 | 1.194 | 0.779 | 2.091 | 3.236 | 0.329 |
